According to US20210340217A1, “NOVEL PEPTIDES AND COMBINATION OF PEPTIDES FOR USE IN IMMUNOTHERAPY AGAINST OVARIAN CANCER AND OTHER CANCERS” (Immatics Biotechnologies GmbH, priority 2017, published 2021):

Assays:
Experiment in all cases: MHC binding assay (UV-ligand exchange, beta2m ELISA)
Conditions in all cases: peptide exchange yield
HLA-A*02:01 = HLA-A*02:01 (Homo sapiens, UniProt P04439, D140Y/D185E/D98H/E176V/E277Q/G131W/G231S/I119V/I121R/I166T/I218V/L300P/L318F/N151K/N90K/P208A/P217A/Q86G/Q94H/R138H/R169H/T345S)
How it was run: (§1)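 Peptide–MHC complexes formed by UV-induced exchange of a UV-cleavable peptide for the test peptide. Exchange yield measured by streptavidin-capture ELISA detecting β2m (HRP anti-β2m, TMB, A450) on 100-fold diluted samples. Quantified against refolded HLA-A*02:01/MLA-001 standards (15-500 ng/ml).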

HLA-A*24:02 = HLA-A*24:02 (Homo sapiens, UniProt P04439, D101N/D140Y/D185E/E176V/E190D/F33S/G103R/G107R/I119L/I121M/I306V/K335N/L105A/L180Q/L300P/N151K/N90K/Q86E/Q94H/R106L/R138H/R89G/T104I/T345S/V100E/W191G/Y123F)
How it was run: as §1

HLA-A*03:01 = HLA-A*03:01 (Homo sapiens, UniProt P04439)
How it was run: as §1

Substance | Peptide exchange (HLA-A*02:01) | further results
1 (MIPTFTALL; listed as Homo sapiens) [compound 1] | +++ (>50 = +++) | 
3 (ALIYNLVGI; listed as Homo sapiens) [compound 3] | ++++ (>75% = ++++) | 
5 (RLLDFINVL; listed as Homo sapiens) [compound 5] | ++++ (>75% = ++++) | 
9 (VLLAGFKPPL; listed as Homo sapiens) [compound 9] | + (>10% = +) | 
10 (RYSDSVGRVSF; listed as Homo sapiens) [compound 10] |  | Peptide exchange (HLA-A*24:02): ++++ (>75% = ++++)
11 (SYSDLHYGF; listed as Homo sapiens) [compound 11] |  | Peptide exchange (HLA-A*24:02): ++++ (>75% = ++++)
12 (KYEKIFEML; listed as Homo sapiens) [compound 12] |  | Peptide exchange (HLA-A*24:02): ++++ (>75% = ++++)
13 (VYTFLSSTL; listed as Homo sapiens) [compound 13] |  | Peptide exchange (HLA-A*24:02): ++++ (>75% = ++++)
14 (FYFPTPTVL; listed as Homo sapiens) [compound 14] |  | Peptide exchange (HLA-A*24:02): ++++ (>75% = ++++)
15 (VYHDDKQPTF; listed as Homo sapiens) [compound 15] |  | Peptide exchange (HLA-A*24:02): ++++ (>75% = ++++)
16 (IYSPQFSRL; listed as Homo sapiens) [compound 16] |  | Peptide exchange (HLA-A*24:02): ++++ (>75% = ++++)
17 (RFTTMLSTF; listed as Homo sapiens) [compound 17] |  | Peptide exchange (HLA-A*24:02): ++++ (>75% = ++++)
18 (KYPVHIYRL; listed as Homo sapiens) [compound 18] |  | Peptide exchange (HLA-A*24:02): ++++ (>75% = ++++)
19 (KYVKVFHQF; listed as Homo sapiens) [compound 19] |  | Peptide exchange (HLA-A*24:02): ++++ (>75% = ++++)
60 (GLLSLTSTLYL; listed as Homo sapiens) [compound 60] | ++++ (>75% = ++++) | 
61 (YMVHIQVTL; listed as Homo sapiens) [compound 61] | ++++ (>75% = ++++) | 
64 (FLDPDRHFL; listed as Homo sapiens) [compound 64] | ++++ (>75% = ++++) | 
67 (SLLLPSIFL; listed as Homo sapiens) [compound 67] | ++++ (>75% = ++++) | 
68 (KLFDTQQFL; listed as Homo sapiens) [compound 68] | ++++ (>75% = ++++) | 

Substance | Peptide exchange (HLA-A*02:01) | further results
70 (VLQGLLRSL; listed as Homo sapiens) [compound 70] | ++++ (>75% = ++++) | 
71 (YLEDTDRNL; listed as Homo sapiens) [compound 71] | ++++ (>75% = ++++) | 
73 (FLIEELLFA; listed as Homo sapiens) [compound 73] | ++++ (>75% = ++++) | 
75 (KVVSVLYNV; listed as Homo sapiens) [compound 75] | ++++ (>75% = ++++) | 
76 (KYVAELSLL; listed as Homo sapiens) [compound 76] |  | Peptide exchange (HLA-A*24:02): ++++ (>75% = ++++)
77 (RYGPVFTV; listed as Homo sapiens) [compound 77] |  | Peptide exchange (HLA-A*24:02): ++++ (>75% = ++++)
78 (SFAPRSAVF; listed as Homo sapiens) [compound 78] |  | Peptide exchange (HLA-A*24:02): ++++ (>75% = ++++)
79 (SYNEHWNYL; listed as Homo sapiens) [compound 79] |  | Peptide exchange (HLA-A*24:02): ++++ (>75% = ++++)
80 (TAYMVSVAAF; listed as Homo sapiens) [compound 80] |  | Peptide exchange (HLA-A*24:02): +++ (>50 = +++)
81 (VYNHTTRPL; listed as Homo sapiens) [compound 81] |  | Peptide exchange (HLA-A*24:02): ++++ (>75% = ++++)
82 (SYFRGFTLI; listed as Homo sapiens) [compound 82] |  | Peptide exchange (HLA-A*24:02): ++++ (>75% = ++++)
220 (RMTTQLLLL; listed as Homo sapiens) [compound 220] | +++ (>50 = +++) | 
221 (SLLDLYQL; listed as Homo sapiens) [compound 221] | ++ (>20% = ++) | 
222 (ALMRLIGCPL; listed as Homo sapiens) [compound 222] | ++++ (>75% = ++++) | 
223 (FAHHGRSL; listed as Homo sapiens) [compound 223] | + (>10% = +) | 
227 (YTFRYPLSL; listed as Homo sapiens) [compound 227] | +++ (>50 = +++) | 
228 (RLWDWVPLA; listed as Homo sapiens) [compound 228] | ++++ (>75% = ++++) | 
231 (SVTESTHHL; listed as Homo sapiens) [compound 231] | +++ (>50 = +++) | 
232 (TISSLTHEL; listed as Homo sapiens) [compound 232] | ++++ (>75% = ++++) | 

Substance | Peptide exchange (HLA-A*02:01) | further results
234 (GVATRVDAI; listed as Homo sapiens) [compound 234] | ++ (>20% = ++) | 
243 (YASEGVKQV; listed as Homo sapiens) [compound 243] | +++ (>50 = +++) | 
244 (DTDSSVHVQV; listed as Homo sapiens) [compound 244] | + (>10% = +) | 
246 (RYLAVVHAVF; listed as Homo sapiens) [compound 246] |  | Peptide exchange (HLA-A*24:02): ++++ (>75% = ++++)
249 (VYTPTLGTL; listed as Homo sapiens) [compound 249] |  | Peptide exchange (HLA-A*24:02): ++++ (>75% = ++++)
252 (LYQPRASEM; listed as Homo sapiens) [compound 252] |  | Peptide exchange (HLA-A*24:02): +++ (>50 = +++)
255 (VFVSFSSLF; listed as Homo sapiens) [compound 255] |  | Peptide exchange (HLA-A*24:02): +++ (>50 = +++)
275 (STTFPTLTK; listed as Homo sapiens) [compound 275] |  | Peptide exchange (HLA-A*03:01): ++ (>20% = ++)
276 (VSKTTGMEF; listed as Homo sapiens) [compound 276] |  | Peptide exchange (HLA-A*03:01): + (>10% = +)
277 (TTALKTTSR; listed as Homo sapiens) [compound 277] |  | Peptide exchange (HLA-A*03:01): + (>10% = +)
278 (NLSSITHER; listed as Homo sapiens) [compound 278] |  | Peptide exchange (HLA-A*03:01): ++ (>20% = ++)
279 (SVSSETTKIKR; listed as Homo sapiens) [compound 279] |  | Peptide exchange (HLA-A*03:01): ++ (>20% = ++)
280 (SVSGVKTTF; listed as Homo sapiens) [compound 280] |  | Peptide exchange (HLA-A*03:01): ++ (>20% = ++)
281 (RAKELEATF; listed as Homo sapiens) [compound 281] |  | Peptide exchange (HLA-A*03:01): + (>10% = +)
283 (IVQEPTEEK; listed as Homo sapiens) [compound 283] |  | Peptide exchange (HLA-A*03:01): ++ (>20% = ++)
284 (KSLIKSWKK; listed as Homo sapiens) [compound 284] |  | Peptide exchange (HLA-A*03:01): ++ (>20% = ++)
285 (GTVNPTVGK; listed as Homo sapiens) [compound 285] |  | Peptide exchange (HLA-A*03:01): ++ (>20% = ++)
286 (TVAPPQGVVK; listed as Homo sapiens) [compound 286] |  | Peptide exchange (HLA-A*03:01): ++ (>20% = ++)
287 (RRIHTGEKPYK; listed as Homo sapiens) [compound 287] |  | Peptide exchange (HLA-A*03:01): ++ (>20% = ++)

The next lines start with results.

Peptide exchange (HLA-A*02:01) | Substance | further results
++++ (>75% = ++++) | 2 (TLLKALLEI; listed as Homo sapiens) [compound 2] | 
++++ (>75% = ++++) | 4 (ALFKAWAL; listed as Homo sapiens) [compound 4] | 
+++ (>50 = +++) | 6 (SLGKHTVAL; listed as Homo sapiens) [compound 6] | 
++++ (>75% = ++++) | 7 (ALQAFEFRV; listed as Homo sapiens) [compound 7] | 
++++ (>75% = ++++) | 8 (YLVTKVVAV; listed as Homo sapiens) [compound 8] | 
++++ (>75% = ++++) | 62 (KVLGVNVML; listed as Homo sapiens) [compound 62] | 
++++ (>75% = ++++) | 63 (MMEEMIFNL; listed as Homo sapiens) [compound 63] | 
++++ (>75% = ++++) | 66 (GLLQELSSI; listed as Homo sapiens) [compound 66] | 
++++ (>75% = ++++) | 69 (TTYEGSITV; listed as Homo sapiens) [compound 69] | 
++++ (>75% = ++++) | 72 (YLTDLQVSL; listed as Homo sapiens) [compound 72] | 
++++ (>75% = ++++) | 216 (IMFDDAIERA; listed as Homo sapiens) [compound 216] | 
+ (>10% = +) | 217 (VSSSLTLKV; listed as Homo sapiens) [compound 217] | 
+ (>10% = +) | 219 (PLPRPGAVL; listed as Homo sapiens) [compound 219] | 
++++ (>75% = ++++) | 224 (SLPRFQVTL; listed as Homo sapiens) [compound 224] | 
+++ (>50 = +++) | 225 (SVFAHPRKL; listed as Homo sapiens) [compound 225] | 
+ (>10% = +) | 229 (ISVPAKTSL; listed as Homo sapiens) [compound 229] | 
+++ (>50 = +++) | 236 (SAIPFSMTL; listed as Homo sapiens) [compound 236] | 
++ (>20% = ++) | 241 (RQPNILVHL; listed as Homo sapiens) [compound 241] | 
+++ (>50 = +++) | 242 (STIPALHEI; listed as Homo sapiens) [compound 242] | 
